Drawing on paper PMC8924211 (Nature Communications, 2022), this text covers Kd for 1 molecule.

As usually defined, the Kd is the concentration at which binding is half-saturated.

Residue numbers refer to the chain shown, from its start.

Holding throughout (experiment): AlphaScreen or HTRF; saturation binding: HEK293 cells transfected with SNAP-tagged receptor (WT or mutant) and labelled with SNAP-Lumi4-Tb, incubated with increasing concentrations of galanin-A2 in the presence or absence of 100 uM unlabeled galanin, 1 h at room temperature; HTRF ratio 665 nm/620 nm
Holding throughout (settings): one partner purified
On the technique in general: Bead proximity is the source of the signal in Alpha formats.

For one test, the target named is T1, SNAP-GAL1R H263^6.51A (human, UniProt P47211 1-349, H263^6.51A, Lumi4-Tb on the SNAP tag).
T1 construct: also called H263A; source: HEK293, transfected, on cells; not shown: SNAP tag, N-terminal, kept
T1 sequence (looked up): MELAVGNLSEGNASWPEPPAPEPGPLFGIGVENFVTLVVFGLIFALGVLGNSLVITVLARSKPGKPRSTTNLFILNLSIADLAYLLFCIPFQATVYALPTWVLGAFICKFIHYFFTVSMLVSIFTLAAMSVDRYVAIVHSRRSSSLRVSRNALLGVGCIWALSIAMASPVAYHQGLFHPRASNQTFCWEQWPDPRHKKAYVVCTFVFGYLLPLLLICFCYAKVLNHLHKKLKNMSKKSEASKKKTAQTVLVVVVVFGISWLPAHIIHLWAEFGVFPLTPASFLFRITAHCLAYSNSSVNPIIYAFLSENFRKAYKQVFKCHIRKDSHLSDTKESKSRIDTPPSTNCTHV

A further test has as its target T2, SNAP-GAL1R H289^7.39A (human, UniProt P47211 1-349, H289^7.39A, Lumi4-Tb on the SNAP tag).
T2 construct: also called H289A; source: HEK293, transfected, on cells; not shown: SNAP tag, N-terminal, kept
T2 sequence (looked up): T1 sequence (looked up) with A263H, H289A

A further test addresses T3, SNAP-GAL1R F177^ECL2A (human, UniProt P47211 1-349, F177^ECL2A, Lumi4-Tb on the SNAP tag).
T3 construct: also called F177A; source: HEK293, transfected, on cells; not shown: SNAP tag, N-terminal, kept
T3 sequence (looked up): T1 sequence (looked up) with F177A, A263H

A further test concerns the target T4, SNAP-GAL1R R285^7.35A (human, UniProt P47211 1-349, R285^7.35A, Lumi4-Tb on the SNAP tag).
T4 construct: also called R285A; source: HEK293, transfected, on cells; not shown: SNAP tag, N-terminal, kept
T4 sequence (looked up): T1 sequence (looked up) with A263H, R285A

The target in the next test is T5, SNAP-GAL1R K197^5.35A (human, UniProt P47211 1-349, K197^5.35A, Lumi4-Tb on the SNAP tag).
T5 construct: also called K197A; source: HEK293, transfected, on cells; not shown: SNAP tag, N-terminal, kept
T5 sequence (looked up): T1 sequence (looked up) with K197A, A263H

B1: galanin-A2 (full-length galanin labeled with the dye A2 on an additional cysteine at the C-terminal end) (peptide)
peptide: GWTLNSAGYLLGPHAVGNHRSFSDKNGLTSC
modifications: dye A2 on the additional C-terminal cysteine
notes: numbers count on: the mature protein; additional cysteine at the C-terminal end of the peptide, carries the dye A2; source: synthetic peptide (synthesized by Vazyme, China)
For the molecule B1, the Kd turned out to be 213 nM with SNAP-GAL1R H263^6.51A; 136 nM in the test with SNAP-GAL1R H289^7.39A; 305 nM with SNAP-GAL1R F177^ECL2A; 159 nM in the test with SNAP-GAL1R R285^7.35A; 159 nM with SNAP-GAL1R K197^5.35A.
